Assay results as given in the nanobody polyreactivity screen of Harvey et al. (2022).

Experiment: yeast display, Sf9 membrane polyspecificity reagent, FACS + sequencing; frameworks hold sequencing errors
Method in brief: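 A nanobody's polyreactivity label depends on the gate it was sorted from. Yeast display cells were stained with 10% biotinylated, detergent-solubilized Sf9 membrane reagent for 1 hour at 4 °C, enriched on streptavidin microbeads and sorted by FACS. The low and high (top ~1%) gates were set on anti-HA fluorescence for expression and streptavidin fluorescence for reagent binding.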

| Sequence | polyreactivity (PSR sort gate) |
| --- | --- |
| QVQLVESGGGLVQAGGSLRLSCAASGRIFLVNAMGWYRQAPGKERELVAAINFISGSTYYADSVKGRFTISRDNAKNTVYLQMNSLKPEDTAVYYCAAYSYWSYVQRYKLEYDYWGQGTQVTVSS | low polyreactivity |
| QVQLVESGGGLVQAGGSLRLSCAASGLTFWSYAMGWYRQAPGKERELVAAISSGGRTYYADSVKGRFTISRDNAKNTVYLQMNSLKPEDTAVYYCNARSRRGPTKDDYWGQGTQVTVSS | high polyreactivity |
| QVQLVESGGGVVQAGGSLRLSCAASGFIFFINDMGWDRQAPGKERELVAAISWSGGSTYYADSVKGRFTISRDNAKNTVYLQMNSLIPEDTAVYYCNTDVPTAQYDYWGQGTQVTVSS | low polyreactivity |
| QVQLVESGGGLVQAGGSLRLSCAASGNIFDTYVMGWYRQAPGKERELVAAITSDGGTYYADSVKGRFTISRDNAKNTVYLQMNSLKPEDTAVYYCAADTYYYPIHDYWGQGTQVTVSS | low polyreactivity |
| QVQLVESGGGLVQAGGSLRLSCAASGIIIRYYAMGWYRQAPGKERELVADITTGGTTYYADSVKGRFTISRDNAKNTVYLQMNSLKPEDTAVYYCAAYYFPTYSKTYIYPFDYWGQGTQVTVSS | low polyreactivity |
| QVQLVESGGGLVQAGGSLRLSSAASGRIFGHYAMGWYRQAPGKERELVAAISRSGTRTYYADSVKGRFTISRDNAKNTVYLQMNSLKPEDTAVYYCAAYTYKGIYYYWGQGTQVTVSS | high polyreactivity |
| QVQLVESGGGLVQAGGSLRLSCAASGRIFIWYAMGWYRQAPGKDRELVAAISTDGSPYYADSVKGRFTISRDNAKNTVYLQMNSLKPEDTAVYYCAAVPGYTHLWGGPFDYWGQGTQVTVSS | low polyreactivity |
| QVQLQESGGGLVQAGGSLRPSCAASGNIFVPFKMGWYRLAPGKERELVASINRGSTTNYADSVKGRFTISRDNAKNTVYLQMISLKPEDTAVYYCAAIAYPDIPTYLDYDSDYFYWDQGTQVTVSS | high polyreactivity |
| QVQLVESGGGLVQAGGSLRLSCAASGRIFKRYVMGWYRQAPGKERELVSAISVRGASTYYADSVKGRFTISRDNAKNTVYLQMNSLKPEDTAVYYCATAGYRLLDYWGQGTQVTVSS | high polyreactivity |
| QVQLVESGGGLVQAGGSLRLSCAASGFTFRQYAMGWYRQAPGKERELVAAISRSGSRTYYADSVKGRFTISRDNAKNTVYLQMNSLKPEDTAVYYCNAVFSTITGEYYWGQGTQVTVSS | high polyreactivity |
| QVQLVESGGGLVQAGGSLRLSSASSRSTFLLNAMGWYRQEPGKERELVAAITWTGGSTYYADSVKGLFTISRDNANNNVYLQMNSLNQEDTAVYYCAAETYVTSYYYWGQGTQVTVSS | low polyreactivity |
| QVQLVESGGGLVQAGGSLRLSCAASGFIFVRNAMGWYRQAPGKEREFVAAITRSGGSTYYADSVKGRFTISRDNAKNTVYLQMNCLKPEDTAVYYCAVLYHSRDRYTYRDEDYWGQGTQVTVSS | low polyreactivity |
| QVQLVESGGGLVQAGGSLRLSCAASGYIFPKNAIGWYRQAPWKERELVAAITGSGGSTYYADSVKGRFTISRDNAKNTVYLQMNSLKPEDTAVYYCAKRSWIEYDYWGQGTQVTVSS | low polyreactivity |
| QVQLVESGGGLVQAGGSLRLSCAASGRIFNRYVMGWYRQAPGKERELVAAISVRGASTYYADSVKGRFTISRDNAKNTVYLQMNSLKPEDTAVYYCATAGYRLLDYWGEGTQVTVSS | high polyreactivity |
| QVQLVESGGGLVQAGGSLRLSCAASGITFALYAMGWYRKAPGKERELVAAISYSGGRTYYADSVKGRFTISRDTAKNTVYLQMNSLKPEDTAVYYCAAGGSGSGPYGYGYWGQGTQVTVSS | high polyreactivity |
| QVHLVESGGGLVQAGGSRRLSCAASGRTVARPAMGWYRQAPGKERELVATITIGGRTYYADSVKGRFTISRDNAKNTVYLQMNSLKPEDTAVYYCAKRISGYRGDYWGQGTQVTVSS | high polyreactivity |
| QVQLVESGGGLVQAGGSLRLSCAASGFTFNKYAMGWYRQAPGTERELVAAISSRGGSPYYADSVKGRFTISRDNAKNTVYLQMNSLKPEDTAVYYCAVYTIGYLAWYQKFDYWGQGTQVTVSS | high polyreactivity |
| QVQLVESGGGLVQAGGSLRLSCAASGSIFDYNAMGWYRQAPGKERELVAAISSGGSTYYADSVKGRFTISRDNAKNTVYLQMNSLKPEDTAVYYCAVKFWYHIYDYWGQGTQVTVSS | low polyreactivity |
| QVQLVESGGGLVQERGSLRLSCAASGSIFFPYAMGWSRQAPGKDRELVAAITRGGNTKYADSVKGRFTISRDNAKNTVYIQMNSLKPEDTAVFYCAARGASIPYGYWGQGTQVTVSS | high polyreactivity |
| QVQLVESGRGLVQAGGSLRLICAASGSIFFYYAMGWYRQAPGKERELVAVITSGGSTNYADSVKGRFTISRDNAKNTVYLQMNSLKPEDTAVYYCNADGYGYFTVREFLDYDYWGQGTQVTVSS | low polyreactivity |
| QVKLVESGGGLVQAGGSLRLSCAASGSTFHLNAMGWYRPAPGKDRELVAANSWDGSSTSYADSVKGRFTISRDNAKNTVYLQMNSLKPEDTAVYFCAADDTLDRVPTTFIDGSPGYGYWGQGTQVTVSS | low polyreactivity |
